Laboratory results published in paper PMC9170038, “Crowdsourced RNA design discovers diverse, reversible, efficient, self-contained molecular switches”.

B1: Eterna 6430193 (Small Loop Exclusion NG 3) (ssRNA)
RNA: GUCGAAACCAUACUGGUCGACGGUCAGGAUAUACAUGAGGAUCACCCAUGUGCUAUUGAUACUAUGUAGAAGGGACCCACCGCA
B2: Eterna 7618605 (Same State - Theophylline A) (ssRNA)
RNA: UGUAACAUGAGGAUCACCCAUGUGAGUGAUACCAGAUUAGUAUUAGUCCCUUGGCAGCACAUUGGGCGAGUGUAUAGUCUAUGCG
B3: Eterna 7689684 (Same State - Theophylline A) (ssRNA)
RNA: UGGAGUUGACGAAAAGUCAACUCCUGAGAUACCAGUGACGAAAGUCACCCUUGGCAGCUCACUGCCAGUGAUGUUGGAAAUAAAA
B4: Eterna 7750603 (Exclusion - Arginine A) (ssRNA)
RNA: GGCCGCAAGGCGAGCGCUCCCACUCCGGAAGGAGCGCCCGUAAGGGCAGGUAGGUCGCCGGAGUGAUGUUCCGGUGGAGGGCUCG
B5: Eterna 6455789 (Same State NG 2) (ssRNA)
RNA: UUGGACGUCGUAGGAUAUGUAGGAUAUUCCUACAUGAGGAUCACCCAUGUUGACAUGGAAGAAGGACAGAAGUACGAUGUCCAU
B6: Eterna 6446347 (Same State NG 2) (ssRNA)
RNA: GGGUACAUCGGAGGAUAUCAUGUAAAUACAUGAGGAUCACCCAUGUCGGUGGAGACAUCGGAGAUUGAGAAGGCCGAUGUACCG
B7: Eterna 5989868 (Exclusion 3) (ssRNA)
RNA: GUAUCACGAGGAUAUACAUGAGGAUCACCCAUGUAGAAGCCAUGUGGUGCUCAAGUAUGUAGAAGGCGUGCUCC
B8: Eterna 1184 (Exclusion - Theophylline B) (ssRNA)
RNA: AACACCCGCUAUGAUACCAGUGAAGUGAUGUUUUACUCCGGGCGUAAGACAAAGGUCAGCCACCCUUGGCAGCAUAUCCGCGUAU
B9: Eterna 6461493 (Inverted Same State NG 1) (ssRNA)
RNA: GUGCUUUGGGAGAAGGCCGUAUGCAAAGCAUACGGAGGAUAUUCAUACCGGAAACGGACAUGAGGAUCACCCAUGUGGCACAAA
B10: Eterna 6069320 (Exclusion 4) (ssRNA)
RNA: GGGUUGUGAGGAUAUUAGUUGUACGUCAAUAGACGUAUGGGUGAGAAGGCACAUGAGGAUCACCCAUGUUCCUG
B11: Eterna 6461246 (Same State NG 1) (ssRNA)
RNA: GUUUUCGCAUGAGGAUAUGCUCGCAUUUUAAGAGCAGAAGGUAUGUCUUUAGACAUGAGGAUCACCCAUGUAUUUAUCAUUGAA
B12: Eterna 6458058 (Inverted Same State NG 2) (ssRNA)
RNA: AAUGGGCAGCAGAAGGCAUGUCUACGGACAUGAGGAUCACCCAUGUAGUAAAGCCGAAAGGCGCAUGAGGAUAUGCUGCCCUAA
B13: Eterna 7744734 (Exclusion - Tryptophan A) (ssRNA)
RNA: CGUGAAUGUCGUCAGUCAUCGGUCCAUGCACGAGGACCGGUACGGCCGCCACUCGAGCGUGGCAGUGAUGUUGCCAGCGCACUAA
B14: Eterna 13277 (Sensor for hsa-mir-208a) (ssRNA)
RNA: AGUUGUGGGAAACUAUAGCAGACGCUCGUACAUGAGGAUCACCCAUGUCUUGUAGGAGCUGUUUGCUCGUUUUAUGG
B15: Eterna 7740311 (Same State - Theophylline A) (ssRNA)
RNA: AAAAUAAGCCAGUGAUGUUGGUAUACAGAUACCAGCGACGAAAGUCGCCCUUGGCAGCUGUGGACGUACAAAAUAAGUACGUCCU
B16: Eterna 6455078 (Same State NG 2) (ssRNA)
RNA: UGGUACUAGGGAGGAUAUGGGAAGAUACAUGAGGAUCACCCAUGUUUAAGAAUGCCGAGAGGGAACUAGAAGGCCCUAGUACCU
B17: Eterna 11543 (Sensor v3, turn-off variant 1) (ssRNA)
RNA: AAAGAAGAGAGAAAAUAACACAUGAGGAUCACCCAUGUGAGAAGUUGAGGGUGAUACAGGCUUUAUGCUCGUCUUAU
B18: Eterna 8603 (Same State 1) (ssRNA)
RNA: AUAAAACAUGAGGAUCACCCAUGUCAACAAAGUCGAGGAUAUGGGCAAAUAAAAUAAGAACCAGAAGGCGUAUAAU
B19: Eterna 6122649 (Exclusion NG 2) (ssRNA)
RNA: UUAUCUUGUCAAGGAUAUGUUGUAUUGAUCUGAAAACAUGAGGAUCACCCAUGUAUACGGUGGGAACAGAAGGUGAAUGUAGAA
B20: Eterna 7717543 (Exclusion - Theophylline B) (ssRNA)
RNA: CCAUUCAUUUACGAUACCAGUCUAAUAUAUUUAAUCAAAACCCUCGCCGAGUGAUGUUCGGACCCUUGGCAGCGUCUGCGACAGG
B21: Eterna 1618 (Same State - Theophylline A) (ssRNA)
RNA: GAUUGAGUGAUGUUCAAUUAGUAUCUAGAUACCAGAAUGUCUACCUUCCCUUGGCAGCUACUGACGGUGAUCAUUUCGCGCGCAG
B22: Eterna 7763203 (Exclusion - FMN B) (ssRNA)
RNA: AAAUAACAGGCAGGAUAUGCUUAGUAAUAAGGCCAUAUAUACGUAUAGAGUGAUGUUUUGUACAAAGCAGAAGGGCUAAAUCCAU
B23: Eterna 6122145 (Exclusion NG 2) (ssRNA)
RNA: AAAUUUAACGAAGGAUAUGCUGACAUGAGGAUCACCCAUGUGUGCUUUGUGUUGCUGAAAUGGGAGCAGAAGGUCGUAUACAUA
B24: Eterna 13730 (Sensor v3, turn-off variant 1) (ssRNA)
RNA: CCGAGGAAGCGGUCCUAUGACAUGAGGAUCACCCAUGUACCUCGCUACGAGCUUUUUGCUCGUCUUAUAAUUCUCGG
B25: Eterna 6075609 (Exclusion 3) (ssRNA)
RNA: CUGAGUUAAGGAUAUACAUGAGGAUCACCCAUGUAAAGUAGCUUGCGUACAGGCAGAUGUAGAAGGUAAUUCGG
B26: Eterna 4 (OligoAControl) (ssRNA)
RNA: UUUCUUAUUCUUUAUUGUGGGGUUUU
B27: Eterna 6045632 (Brourd's mod of Exclusion 4) (ssRNA)
RNA: CGGGCUGCUGUGAGGAUAUGCCUGUGGGUGCGUGGGUAGAAGGCACAUGAGGAUCACCCAUGUCCUGCAGCUCG
B28: Eterna 15090 (Exclusion 6) (ssRNA)
RNA: AAAUGGGCGUAGGAUAUGAGAUGGUCUAGCAGCUCAGAAGGACGCACAUGAGGAUCACCCAUGUGAUCGGACUA
B29: Eterna 6146814 (Same State NG 1) (ssRNA)
RNA: GGUGUCGCAUGAGGAUAUGGUCAGCUUUGCUGACCAGAAGGCAUGUCAAUAGACAUGAGGAUCACCCAUGUAGUAAAGACACCA
B30: Eterna 8 (K4-8bp_control) (ssRNA)
RNA: UUUGCAGGGCAGUGAUGUUGCCCUGCUUU
B31: Eterna 6402815 (Same State NG 2) (ssRNA)
RNA: ACCUCGUACACAGGAUAUGAUUACUUGCAGCCUGCGUUGACAUGAGGAUCACCCAUGUGGACUGAUCAGAAGGGUGAACGGAAG
B32: Eterna 10695 (Exclusion 1) (ssRNA)
RNA: AAUUCACAUGAGGAUCACCCAUGUCAGGAUAUGGUGACGCGGGUUUCGGUGCGUGUUGCCAGAAGGGACGGCUG
B33: Eterna 7740449 (Exclusion - Theophylline A) (ssRNA)
RNA: AUGUUUUAUAAACUCAUGGUUUCGACAGAUACCAGCUUCGAGAGGAGCCCUUGGCAGCUGCAUGAGUGAUGUUCAUGUACGAAGA
B34: Eterna 7741560 (Exclusion - FMN A) (ssRNA)
RNA: UCCUAGGCUCGAAAGAGCCUAGGAUUGACUCAGGAUAUCCGGAAACGGAGAAGGGAGUCACUAGUGAUGUUAGGGAUUCCCUAUU
B35: Eterna 7613251 (Exclusion - Tryptophan A) (ssRNA)
RNA: CGGACAUGAGGAUCACCCAUGUCGUCGACGCGAGGACCGGUACGGCCGCCACUCGCAUGCCAAUGAGCGCAUGCGGCCUGGGUAU
B36: Eterna 7644049 (Same State - Tryptophan A) (ssRNA)
RNA: ACAUGAGGAUCACCCAUGUCAUGAGGUUCACGAGGACCGGUACGGCCGCCACUCGACAUGAGGGUCACCCGUGAACGGAACACCC
B37: Eterna 12069 (Sensor v3, turn-off variant 1) (ssRNA)
RNA: UGUUGUUGUUUCCGUUCUUACAUGAGGAUCACCCAUGUUUCUUGUCGUGCUCGCGUUGCUCGUCAGACUACCUGUUG

These binders were tested against T1, MS2 coat protein, dlFG mutant (Escherichia phage MS2, UniProt P03612, del68-81insG) (assay: 4 mM Mg2+; FMN 200 uM; RNA-MaP array; 100 mM Tris-HCl pH 7.5, 80 mM KCl, 4 mM MgCl2, 0.1 mg/mL BSA, 1 mM DTT, 0.01 mg/mL yeast tRNA, 0.01% Tween-20; protein 1.5 nM to 3 uM; 37 C (Table S3)). Conditions: chain copies: 2; label: tethered by stalled RNA polymerase.
B1 was tested, and the Kd was 0.0244 µM.

The binders below were run against T1, MS2 coat protein, dlFG mutant (assay: 4 mM Mg2+; theophylline 2 mM; RNA-MaP array; 100 mM Tris-HCl pH 7.5, 80 mM KCl, 4 mM MgCl2, 0.1 mg/mL BSA, 1 mM DTT, 0.01 mg/mL yeast tRNA, 0.01% Tween-20; protein 1.5 nM to 3 uM; 37 C (Table S3)). Conditions: chain copies: 2; label: tethered by stalled RNA polymerase.
Work on B2 yielded a Kd of 0.109 µM.

Each binder was assayed against T1, MS2 coat protein, dlFG mutant (assay: 4 mM Mg2+; no ligand; RNA-MaP array; 100 mM Tris-HCl pH 7.5, 80 mM KCl, 4 mM MgCl2, 0.1 mg/mL BSA, 1 mM DTT, 0.01 mg/mL yeast tRNA, 0.01% Tween-20; protein 1.5 nM to 3 uM; 37 C (Table S3)). Conditions: chain copies: 2; label: tethered by stalled RNA polymerase.
For B3, the Kd was over 3 µM. In the case of B4, the Kd is reported as over 3 µM. Binder B5 has a Kd of 0.127 µM. Binder B6 has a Kd of 0.271 µM. Binder B7 has a Kd of 0.0361 µM. Binder B8 has a Kd of over 3 µM. For B9, the Kd was 1.2 µM. B10 gave a Kd of 0.107 µM. B11 showed a Kd of 0.162 µM. B12 gave a Kd of 0.121 µM. Binder B13 has a Kd of over 3 µM. B14 gave a Kd of 0.0638 µM. B15 gave a Kd of over 3 µM. B16 gave a Kd of 0.255 µM. B17 gave a Kd of 0.203 µM. With B18 the Kd was 0.53 µM. B19 gave a Kd of 0.808 µM. Binder B20 has a Kd of over 3 µM. In the case of B21, the Kd is reported as over 3 µM. Work on B22 yielded a Kd of over 3 µM. Binder B23 has a Kd of 0.118 µM. Binder B24 has a Kd of 0.0236 µM. For B25, the Kd was 0.043 µM. For B26, the Kd was over 3 µM. In the case of B27, the Kd is reported as 1.13 µM. Binder B28 has a Kd of 0.0287 µM. B29 was tested, and the Kd was 0.504 µM. In the case of B30, the Kd is reported as over 3 µM. B31 was tested, and the Kd was 0.571 µM. B32 was tested, and the Kd was 0.133 µM. Work on B33 yielded a Kd of over 3 µM. With B34 the Kd was over 3 µM.

Each binder was assayed against T1, MS2 coat protein, dlFG mutant (assay: 4 mM Mg2+; L-tryptophan 2.4 mM; RNA-MaP array; 100 mM Tris-HCl pH 7.5, 80 mM KCl, 4 mM MgCl2, 0.1 mg/mL BSA, 1 mM DTT, 0.01 mg/mL yeast tRNA, 0.01% Tween-20; protein 1.5 nM to 3 uM; 37 C (Table S3)). Conditions: chain copies: 2; label: tethered by stalled RNA polymerase.
Binder B35 has a Kd of 0.0228 µM. B36 gave a Kd of 0.02 µM.

What follows are binders tested against T1, MS2 coat protein, dlFG mutant (assay: 4 mM Mg2+; miR-208a RNA 100 nM (AU…UUGU); RNA-MaP array; 100 mM Tris-HCl pH 7.5, 80 mM KCl, 4 mM MgCl2, 0.1 mg/mL BSA, 1 mM DTT, 0.01 mg/mL yeast tRNA, 0.01% Tween-20; protein 1.5 nM to 3 uM; 37 C (Table S3)). Conditions: chain copies: 2; label: tethered by stalled RNA polymerase.
For B37, the Kd was 0.111 µM.
